In US20230002496A1 (STAIDSON BEIJING BIOPHARMACEUTICALS, published 2023):

T1: human GM-CSFRα, full length on cells (human, UniProt P15509 23-400)
T1 sequence: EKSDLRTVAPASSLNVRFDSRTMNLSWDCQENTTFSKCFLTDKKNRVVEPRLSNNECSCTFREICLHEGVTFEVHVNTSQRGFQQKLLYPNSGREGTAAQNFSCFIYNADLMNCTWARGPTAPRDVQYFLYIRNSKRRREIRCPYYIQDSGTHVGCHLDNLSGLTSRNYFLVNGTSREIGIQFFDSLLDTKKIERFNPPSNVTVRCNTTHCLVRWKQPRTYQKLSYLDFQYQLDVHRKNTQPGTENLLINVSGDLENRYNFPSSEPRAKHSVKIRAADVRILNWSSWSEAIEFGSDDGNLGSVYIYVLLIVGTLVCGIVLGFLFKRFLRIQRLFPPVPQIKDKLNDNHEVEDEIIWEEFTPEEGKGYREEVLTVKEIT


Target: T1, human GM-CSFRα, full length on cells
Assay: cell-based or functional assay

| IC50, TF-1 cell proliferation [µg/mL] | Binder |
| --- | --- |
| 0.31 | E35-scFv HE31R (scFv, V domains shown) VH: QMQLVQSGAEVKKPGASVKVSCKVSGYTLTRLSIHWVRQAPGKGLEWMGGFDPEDGETIYAQKFQGRVTMTGDTSTDTAYLELSSLRSEDTALYYCATGRYTSLATTYGFDYWGQGTLVTVSS VL: EIVMTQSPATLSLSPGERATLSCRASQSVSSYLAWYQQKPGQAPRLLIYGASSRATGIPDRFSGSGSGTDFTLTISRLEPEDFAVYYCQQYDNWPYTFGQGTKLEIK |
| 0.132 | E35-scFv HT30D (scFv, V domains shown) VH: QMQLVQSGAEVKKPGASVKVSCKVSGYTLDELSIHWVRQAPGKGLEWMGGFDPEDGETIYAQKFQGRVTMTGDTSTDTAYLELSSLRSEDTALYYCATGRYTSLATTYGFDYWGQGTLVTVSS VL: EIVMTQSPATLSLSPGERATLSCRASQSVSSYLAWYQQKPGQAPRLLIYGASSRATGIPDRFSGSGSGTDFTLTISRLEPEDFAVYYCQQYDNWPYTFGQGTKLEIK |
| 0.22 | E35-scFv HE31V (scFv, V domains shown) VH: QMQLVQSGAEVKKPGASVKVSCKVSGYTLTVLSIHWVRQAPGKGLEWMGGFDPEDGETIYAQKFQGRVTMTGDTSTDTAYLELSSLRSEDTALYYCATGRYTSLATTYGFDYWGQGTLVTVSS VL: EIVMTQSPATLSLSPGERATLSCRASQSVSSYLAWYQQKPGQAPRLLIYGASSRATGIPDRFSGSGSGTDFTLTISRLEPEDFAVYYCQQYDNWPYTFGQGTKLEIK |
| 0.126 | E35-scFv HT30P (scFv, V domains shown) VH: QMQLVQSGAEVKKPGASVKVSCKVSGYTLPELSIHWVRQAPGKGLEWMGGFDPEDGETIYAQKFQGRVTMTGDTSTDTAYLELSSLRSEDTALYYCATGRYTSLATTYGFDYWGQGTLVTVSS VL: EIVMTQSPATLSLSPGERATLSCRASQSVSSYLAWYQQKPGQAPRLLIYGASSRATGIPDRFSGSGSGTDFTLTISRLEPEDFAVYYCQQYDNWPYTFGQGTKLEIK |
| 0.132 | E35-scFv HT30E (scFv, V domains shown) VH: QMQLVQSGAEVKKPGASVKVSCKVSGYTLEELSIHWVRQAPGKGLEWMGGFDPEDGETIYAQKFQGRVTMTGDTSTDTAYLELSSLRSEDTALYYCATGRYTSLATTYGFDYWGQGTLVTVSS VL: EIVMTQSPATLSLSPGERATLSCRASQSVSSYLAWYQQKPGQAPRLLIYGASSRATGIPDRFSGSGSGTDFTLTISRLEPEDFAVYYCQQYDNWPYTFGQGTKLEIK |
| 0.151 | E35-scFv HT30W (scFv, V domains shown) VH: QMQLVQSGAEVKKPGASVKVSCKVSGYTLWELSIHWVRQAPGKGLEWMGGFDPEDGETIYAQKFQGRVTMTGDTSTDTAYLELSSLRSEDTALYYCATGRYTSLATTYGFDYWGQGTLVTVSS VL: EIVMTQSPATLSLSPGERATLSCRASQSVSSYLAWYQQKPGQAPRLLIYGASSRATGIPDRFSGSGSGTDFTLTISRLEPEDFAVYYCQQYDNWPYTFGQGTKLEIK |
| 0.26 | E35-scFv HE31W (scFv, V domains shown) VH: QMQLVQSGAEVKKPGASVKVSCKVSGYTLTWLSIHWVRQAPGKGLEWMGGFDPEDGETIYAQKFQGRVTMTGDTSTDTAYLELSSLRSEDTALYYCATGRYTSLATTYGFDYWGQGTLVTVSS VL: EIVMTQSPATLSLSPGERATLSCRASQSVSSYLAWYQQKPGQAPRLLIYGASSRATGIPDRFSGSGSGTDFTLTISRLEPEDFAVYYCQQYDNWPYTFGQGTKLEIK |
| 0.21 | E35-scFv HE31A (scFv, V domains shown) VH: QMQLVQSGAEVKKPGASVKVSCKVSGYTLTALSIHWVRQAPGKGLEWMGGFDPEDGETIYAQKFQGRVTMTGDTSTDTAYLELSSLRSEDTALYYCATGRYTSLATTYGFDYWGQGTLVTVSS VL: EIVMTQSPATLSLSPGERATLSCRASQSVSSYLAWYQQKPGQAPRLLIYGASSRATGIPDRFSGSGSGTDFTLTISRLEPEDFAVYYCQQYDNWPYTFGQGTKLEIK |
| 0.36 | E35-scFv HE31C (scFv, V domains shown) VH: QMQLVQSGAEVKKPGASVKVSCKVSGYTLTCLSIHWVRQAPGKGLEWMGGFDPEDGETIYAQKFQGRVTMTGDTSTDTAYLELSSLRSEDTALYYCATGRYTSLATTYGFDYWGQGTLVTVSS VL: EIVMTQSPATLSLSPGERATLSCRASQSVSSYLAWYQQKPGQAPRLLIYGASSRATGIPDRFSGSGSGTDFTLTISRLEPEDFAVYYCQQYDNWPYTFGQGTKLEIK |
| 0.174 | E35-scFv HT30M (scFv, V domains shown) VH: QMQLVQSGAEVKKPGASVKVSCKVSGYTLMELSIHWVRQAPGKGLEWMGGFDPEDGETIYAQKFQGRVTMTGDTSTDTAYLELSSLRSEDTALYYCATGRYTSLATTYGFDYWGQGTLVTVSS VL: EIVMTQSPATLSLSPGERATLSCRASQSVSSYLAWYQQKPGQAPRLLIYGASSRATGIPDRFSGSGSGTDFTLTISRLEPEDFAVYYCQQYDNWPYTFGQGTKLEIK |

Second part, the binder before the results:

| Binder | IC50, TF-1 cell proliferation [µg/mL] |
| --- | --- |
| E35-scFv HE31Y (scFv, V domains shown) VH: QMQLVQSGAEVKKPGASVKVSCKVSGYTLTYLSIHWVRQAPGKGLEWMGGFDPEDGETIYAQKFQGRVTMTGDTSTDTAYLELSSLRSEDTALYYCATGRYTSLATTYGFDYWGQGTLVTVSS VL: EIVMTQSPATLSLSPGERATLSCRASQSVSSYLAWYQQKPGQAPRLLIYGASSRATGIPDRFSGSGSGTDFTLTISRLEPEDFAVYYCQQYDNWPYTFGQGTKLEIK | 0.2 |
| E35-scFv HT30Y (scFv, V domains shown) VH: QMQLVQSGAEVKKPGASVKVSCKVSGYTLYELSIHWVRQAPGKGLEWMGGFDPEDGETIYAQKFQGRVTMTGDTSTDTAYLELSSLRSEDTALYYCATGRYTSLATTYGFDYWGQGTLVTVSS VL: EIVMTQSPATLSLSPGERATLSCRASQSVSSYLAWYQQKPGQAPRLLIYGASSRATGIPDRFSGSGSGTDFTLTISRLEPEDFAVYYCQQYDNWPYTFGQGTKLEIK | 0.142 |
| E35-scFv HT30A (scFv, V domains shown) VH: QMQLVQSGAEVKKPGASVKVSCKVSGYTLAELSIHWVRQAPGKGLEWMGGFDPEDGETIYAQKFQGRVTMTGDTSTDTAYLELSSLRSEDTALYYCATGRYTSLATTYGFDYWGQGTLVTVSS VL: EIVMTQSPATLSLSPGERATLSCRASQSVSSYLAWYQQKPGQAPRLLIYGASSRATGIPDRFSGSGSGTDFTLTISRLEPEDFAVYYCQQYDNWPYTFGQGTKLEIK | 0.215 |
| E35-scFv HE31K (scFv, V domains shown) VH: QMQLVQSGAEVKKPGASVKVSCKVSGYTLTKLSIHWVRQAPGKGLEWMGGFDPEDGETIYAQKFQGRVTMTGDTSTDTAYLELSSLRSEDTALYYCATGRYTSLATTYGFDYWGQGTLVTVSS VL: EIVMTQSPATLSLSPGERATLSCRASQSVSSYLAWYQQKPGQAPRLLIYGASSRATGIPDRFSGSGSGTDFTLTISRLEPEDFAVYYCQQYDNWPYTFGQGTKLEIK | 0.23 |
| E35-scFv HT30Q (scFv, V domains shown) VH: QMQLVQSGAEVKKPGASVKVSCKVSGYTLQELSIHWVRQAPGKGLEWMGGFDPEDGETIYAQKFQGRVTMTGDTSTDTAYLELSSLRSEDTALYYCATGRYTSLATTYGFDYWGQGTLVTVSS VL: EIVMTQSPATLSLSPGERATLSCRASQSVSSYLAWYQQKPGQAPRLLIYGASSRATGIPDRFSGSGSGTDFTLTISRLEPEDFAVYYCQQYDNWPYTFGQGTKLEIK | 0.192 |
| E35-scFv HT30G (scFv, V domains shown) VH: QMQLVQSGAEVKKPGASVKVSCKVSGYTLGELSIHWVRQAPGKGLEWMGGFDPEDGETIYAQKFQGRVTMTGDTSTDTAYLELSSLRSEDTALYYCATGRYTSLATTYGFDYWGQGTLVTVSS VL: EIVMTQSPATLSLSPGERATLSCRASQSVSSYLAWYQQKPGQAPRLLIYGASSRATGIPDRFSGSGSGTDFTLTISRLEPEDFAVYYCQQYDNWPYTFGQGTKLEIK | 0.199 |
| E35-scFv HT30L (scFv, V domains shown) VH: QMQLVQSGAEVKKPGASVKVSCKVSGYTLLELSIHWVRQAPGKGLEWMGGFDPEDGETIYAQKFQGRVTMTGDTSTDTAYLELSSLRSEDTALYYCATGRYTSLATTYGFDYWGQGTLVTVSS VL: EIVMTQSPATLSLSPGERATLSCRASQSVSSYLAWYQQKPGQAPRLLIYGASSRATGIPDRFSGSGSGTDFTLTISRLEPEDFAVYYCQQYDNWPYTFGQGTKLEIK | 0.181 |
| E35-scFv HT30S (scFv, V domains shown) VH: QMQLVQSGAEVKKPGASVKVSCKVSGYTLSELSIHWVRQAPGKGLEWMGGFDPEDGETIYAQKFQGRVTMTGDTSTDTAYLELSSLRSEDTALYYCATGRYTSLATTYGFDYWGQGTLVTVSS VL: EIVMTQSPATLSLSPGERATLSCRASQSVSSYLAWYQQKPGQAPRLLIYGASSRATGIPDRFSGSGSGTDFTLTISRLEPEDFAVYYCQQYDNWPYTFGQGTKLEIK | 0.213 |
| E35-scFv HT30N (scFv, V domains shown) VH: QMQLVQSGAEVKKPGASVKVSCKVSGYTLNELSIHWVRQAPGKGLEWMGGFDPEDGETIYAQKFQGRVTMTGDTSTDTAYLELSSLRSEDTALYYCATGRYTSLATTYGFDYWGQGTLVTVSS VL: EIVMTQSPATLSLSPGERATLSCRASQSVSSYLAWYQQKPGQAPRLLIYGASSRATGIPDRFSGSGSGTDFTLTISRLEPEDFAVYYCQQYDNWPYTFGQGTKLEIK | 0.178 |
| E35-scFv HT30V (scFv, V domains shown) VH: QMQLVQSGAEVKKPGASVKVSCKVSGYTLVELSIHWVRQAPGKGLEWMGGFDPEDGETIYAQKFQGRVTMTGDTSTDTAYLELSSLRSEDTALYYCATGRYTSLATTYGFDYWGQGTLVTVSS VL: EIVMTQSPATLSLSPGERATLSCRASQSVSSYLAWYQQKPGQAPRLLIYGASSRATGIPDRFSGSGSGTDFTLTISRLEPEDFAVYYCQQYDNWPYTFGQGTKLEIK | 0.158 |
